Measurements published in paper PMC10130768.

Tests used:
DHX9 = DHX9 (UniProt Q08211); experiment: HA immunoprecipitation and mass spectrometry; settings: PC3 cells; average of three independent experiments; parent: est. 32; read off a plot
SNF2H = SNF2H (UniProt O60264); experiment: HA immunoprecipitation and mass spectrometry; settings: PC3 cells; average of three independent experiments; parent: est. 35; read off a plot
UniProt O60264, sequence (O60264 whole entry): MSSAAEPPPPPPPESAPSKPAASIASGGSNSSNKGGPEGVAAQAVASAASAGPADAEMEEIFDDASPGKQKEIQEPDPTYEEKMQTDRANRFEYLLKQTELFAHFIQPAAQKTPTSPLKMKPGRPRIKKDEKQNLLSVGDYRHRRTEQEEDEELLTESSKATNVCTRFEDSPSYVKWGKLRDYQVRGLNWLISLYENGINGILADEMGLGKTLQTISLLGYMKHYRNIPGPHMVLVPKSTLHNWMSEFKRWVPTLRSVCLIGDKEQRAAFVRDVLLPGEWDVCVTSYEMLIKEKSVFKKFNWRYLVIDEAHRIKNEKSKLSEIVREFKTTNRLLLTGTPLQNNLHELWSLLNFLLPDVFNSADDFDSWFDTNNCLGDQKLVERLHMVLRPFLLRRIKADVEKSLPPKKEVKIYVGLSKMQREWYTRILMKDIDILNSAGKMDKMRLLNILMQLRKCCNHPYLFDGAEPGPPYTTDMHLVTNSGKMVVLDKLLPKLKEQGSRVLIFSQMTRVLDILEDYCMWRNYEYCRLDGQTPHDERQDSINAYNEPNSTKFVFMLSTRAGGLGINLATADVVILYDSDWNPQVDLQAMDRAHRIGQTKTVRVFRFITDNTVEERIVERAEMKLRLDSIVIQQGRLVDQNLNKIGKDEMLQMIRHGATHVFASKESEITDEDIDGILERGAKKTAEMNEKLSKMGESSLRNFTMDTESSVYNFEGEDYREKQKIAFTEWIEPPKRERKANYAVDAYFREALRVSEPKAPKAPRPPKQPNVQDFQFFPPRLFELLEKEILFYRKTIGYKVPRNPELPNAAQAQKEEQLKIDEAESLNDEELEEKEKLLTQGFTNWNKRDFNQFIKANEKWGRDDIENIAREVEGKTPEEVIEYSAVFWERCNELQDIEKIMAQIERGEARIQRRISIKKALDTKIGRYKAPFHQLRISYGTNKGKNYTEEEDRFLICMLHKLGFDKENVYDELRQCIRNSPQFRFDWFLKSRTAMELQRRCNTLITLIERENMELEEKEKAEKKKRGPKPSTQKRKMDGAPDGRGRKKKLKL

UniProt Q08211, sequence (Q08211 whole entry): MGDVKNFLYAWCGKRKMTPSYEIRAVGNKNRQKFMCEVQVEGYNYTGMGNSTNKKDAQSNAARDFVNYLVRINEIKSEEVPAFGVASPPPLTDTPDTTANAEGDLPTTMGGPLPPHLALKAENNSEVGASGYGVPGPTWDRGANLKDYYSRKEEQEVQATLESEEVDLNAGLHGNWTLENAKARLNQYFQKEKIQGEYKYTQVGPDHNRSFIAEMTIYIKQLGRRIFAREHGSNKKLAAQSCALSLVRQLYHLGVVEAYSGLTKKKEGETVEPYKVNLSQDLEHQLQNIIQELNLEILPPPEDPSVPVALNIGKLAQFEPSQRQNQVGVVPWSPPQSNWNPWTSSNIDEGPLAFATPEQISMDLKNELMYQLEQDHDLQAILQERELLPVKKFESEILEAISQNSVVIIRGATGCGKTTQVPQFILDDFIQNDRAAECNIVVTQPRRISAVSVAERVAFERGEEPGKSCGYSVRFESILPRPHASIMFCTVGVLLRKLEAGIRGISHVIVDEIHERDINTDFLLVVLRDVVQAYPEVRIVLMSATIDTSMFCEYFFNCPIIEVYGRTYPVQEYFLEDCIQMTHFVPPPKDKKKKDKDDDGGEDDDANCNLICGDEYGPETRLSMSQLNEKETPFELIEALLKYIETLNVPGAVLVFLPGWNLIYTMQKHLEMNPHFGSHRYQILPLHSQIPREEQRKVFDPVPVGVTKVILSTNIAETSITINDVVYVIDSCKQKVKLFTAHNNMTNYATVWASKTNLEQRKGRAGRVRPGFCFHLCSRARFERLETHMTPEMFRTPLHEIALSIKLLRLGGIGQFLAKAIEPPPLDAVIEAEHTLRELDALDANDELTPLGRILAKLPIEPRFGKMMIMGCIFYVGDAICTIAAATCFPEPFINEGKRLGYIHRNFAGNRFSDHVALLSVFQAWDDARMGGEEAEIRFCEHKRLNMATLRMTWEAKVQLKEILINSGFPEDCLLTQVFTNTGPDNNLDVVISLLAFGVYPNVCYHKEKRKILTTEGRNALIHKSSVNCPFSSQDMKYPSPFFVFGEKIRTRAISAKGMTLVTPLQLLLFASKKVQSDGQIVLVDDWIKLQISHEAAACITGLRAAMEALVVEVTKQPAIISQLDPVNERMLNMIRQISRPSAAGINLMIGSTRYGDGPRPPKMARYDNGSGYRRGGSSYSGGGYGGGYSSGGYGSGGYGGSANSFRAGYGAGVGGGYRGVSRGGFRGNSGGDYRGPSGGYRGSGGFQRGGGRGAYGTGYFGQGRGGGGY

With “HA-FLAG-tagged mouse WT BAZ2A (from UniProt Q91YE5) W531G; Y532A” the response (peptides number) (DHX9) was 36 and the response (peptides number) (SNF2H) was 32.
